According to paper PMC10127577 (2023):

T1: CDTb protoxin (proCDTb), CDTb residues 43 to 876 (Clostridioides difficile, UniProt O32739 43-876)
T1 chain: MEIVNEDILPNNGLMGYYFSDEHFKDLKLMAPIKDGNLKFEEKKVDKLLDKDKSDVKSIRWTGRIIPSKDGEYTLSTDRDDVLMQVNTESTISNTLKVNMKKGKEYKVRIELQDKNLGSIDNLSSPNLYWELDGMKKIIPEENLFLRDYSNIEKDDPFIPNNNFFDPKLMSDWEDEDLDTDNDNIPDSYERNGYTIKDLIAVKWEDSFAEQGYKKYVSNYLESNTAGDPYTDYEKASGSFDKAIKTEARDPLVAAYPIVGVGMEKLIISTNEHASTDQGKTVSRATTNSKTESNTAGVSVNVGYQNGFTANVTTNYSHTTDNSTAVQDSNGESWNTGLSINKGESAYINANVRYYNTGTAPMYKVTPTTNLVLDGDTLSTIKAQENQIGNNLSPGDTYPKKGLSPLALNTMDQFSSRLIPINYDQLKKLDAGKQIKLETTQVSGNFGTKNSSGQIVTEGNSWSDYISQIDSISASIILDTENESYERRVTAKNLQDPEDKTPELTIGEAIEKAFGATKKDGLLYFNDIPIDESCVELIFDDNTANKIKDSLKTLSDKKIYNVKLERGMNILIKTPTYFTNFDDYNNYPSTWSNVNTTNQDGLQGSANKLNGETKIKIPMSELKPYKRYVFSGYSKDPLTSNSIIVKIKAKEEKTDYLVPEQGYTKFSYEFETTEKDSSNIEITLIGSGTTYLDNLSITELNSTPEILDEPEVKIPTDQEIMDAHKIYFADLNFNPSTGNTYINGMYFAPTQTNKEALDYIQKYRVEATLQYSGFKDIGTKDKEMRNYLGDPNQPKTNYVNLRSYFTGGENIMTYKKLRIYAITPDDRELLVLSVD

B1: BINTOXB/22 Fab (Fab, V domains shown)
VH: QIQLVQSGPELKKPGETVKISCKASGYTFTNYGMNWVKQAPGKDLKWMGWMSTYTGEPTYADDFKGRFAFSLETSASTAYLQINNLKNEDMATYFCARRGNYLSFDYWGQGTTLTVSS
VL: DIVMTQSHKFMSTSVGDRVSITCKASQDVSTAVGWYQQKPGQSPKLLIYSASYRYTGVPDRFTGSGSGTDFTFTISSVQAEDLAVYYCQQHYSPPFTFGSGTELEIK
B2: BINTOXB/9 Fab (Fab, V domains shown)
VH: QVQLQQSGAELARPGASVKMSCKASGYTFTSYTMHWVKQRPGQGLEWIGYINPSNDYTSYNQKFKDKATLTADKSSSTAYMQLSSLTSEDSAVYYCARCWGYDPYYFDYWGQGTTLTVSS
VL: DIVMSQSPSLLAVSAGEKVTMSCKSSQSLLNSRTRKNYLAWYQQKPGQSPKVLIYWASTRESGVPDRFTGSGSGTDFTLTISSVQAEDLAVYYCKQSYNLLTFGAGTKLELK

Target: T1, CDTb protoxin (proCDTb), CDTb residues …
Experiment: SPR

Row | Binder | koff [s⁻¹]
1 | B1 | 0.00299
2 | B2 | 0.000227
